# Reference: publication PMC13031064
# B1: CPS1 probe (dsDNA)
# DNA 1: AATCATTTTTCATTTGACTGCCAAGGTAATCATTTTTCATTTGACTGCCAAGGT
# DNA 2: ACCTTGGCAGTCAAATGAAAAATGATTACCTTGGCAGTCAAATGAAAAATGATT
# B2: DXS2 probe (dsDNA)
# DNA 1: TAAATCCTGACATTTGAATAGTATATTAAATCCTGACATTTGAATAGTATAT
# DNA 2: ATATACTATTCAAATGTCAGGATTTAATATACTATTCAAATGTCAGGATTTA
# B3: KSL1 probe (dsDNA)
# DNA 1: TGCATCATCTCATTTGGAGTTTAAAATGCATCATCTCATTTGGAGTTTAAAA
# DNA 2: TTTTAAACTCCAAATGAGATGATGCATTTTAAACTCCAAATGAGATGATGCA
# B4: CYP76AH1 probe (dsDNA)
# DNA 1: TATAATAGAACATTTGGGCGATGCTATATAATAGAACATTTGGGCGATGCTA
# DNA 2: TAGCATCGCCCAAATGTTCTATTATATAGCATCGCCCAAATGTTCTATTATA
# Target: bHLH130-His (SmbHLH130) (Salvia miltiorrhiza, UniProt A0A0H3Y8V8 1-394)
# Test: EMSA
row,Binder,binding result
1,B1,binds
2,B2,binds
3,B3,binds
4,B4,binds
